{"source": "patent US6500670", "proteins": {"B1": {"name": "Arabidopsis thaliana pyruvate dehydrogenase kinase (PDHK) fusion protein, product of clone YA5 expressed in E. coli from construct pZTa5 (pTrcHisB vector) (protein)", "chain": "MAVKKACEMFPKSLIEDVHKWGCMKQTGVSLRYMMEFGSKPTERNLLISAQFLHKELPIRVARRAIELQTLPYGLSDKPAVLKVRDWYLESFRDMRAFPEIKDSGDEKDFTQMIKAVKVRHNNVVPMMALGVNQLKKGMNSGNLDEIHQFLDRFYLSRIGIRMLIGQHVELHNPNPPLHTVGYIHTKMSPMEVARNASEDARSICFREYGSAPEINIYGDPSFTFPYVPTHLDLMMYELVKNSLRAVQERFVDSDRVAPPIRIIVADGIEDVTIKVSDEGGGIARSGLPRIFTYLYSTARNPLEEDVDLGIADVPGTMGGYGYGLPISRLYARYFGGDLQIISMEGYGTDAYLHLSRLGDSQEPLP"}}, "molecular_target": "T1, human pyruvate dehydrogenase E1alpha/E1beta subunit complex, co-expressed in and purified from E. coli M15, P08559", "T1 chain 1": "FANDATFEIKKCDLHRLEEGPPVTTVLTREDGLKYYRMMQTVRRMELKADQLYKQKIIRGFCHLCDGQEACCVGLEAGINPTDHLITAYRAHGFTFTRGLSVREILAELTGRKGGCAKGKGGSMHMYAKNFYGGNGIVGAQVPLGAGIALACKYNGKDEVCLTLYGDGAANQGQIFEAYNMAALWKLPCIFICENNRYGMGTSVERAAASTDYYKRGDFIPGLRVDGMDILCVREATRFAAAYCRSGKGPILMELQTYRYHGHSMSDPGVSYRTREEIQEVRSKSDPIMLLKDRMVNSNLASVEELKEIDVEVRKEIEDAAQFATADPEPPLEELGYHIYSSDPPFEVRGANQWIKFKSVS", "T1 chain 2": "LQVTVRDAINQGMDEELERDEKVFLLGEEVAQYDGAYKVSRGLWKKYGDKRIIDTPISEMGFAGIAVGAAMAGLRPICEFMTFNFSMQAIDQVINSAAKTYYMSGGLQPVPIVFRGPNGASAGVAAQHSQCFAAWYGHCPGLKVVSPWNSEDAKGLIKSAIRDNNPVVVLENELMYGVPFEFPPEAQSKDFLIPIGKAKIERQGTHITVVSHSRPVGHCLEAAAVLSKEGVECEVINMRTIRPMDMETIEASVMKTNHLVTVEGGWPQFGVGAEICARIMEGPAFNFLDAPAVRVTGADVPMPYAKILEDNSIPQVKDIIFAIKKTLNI", "data": [{"protein": "B1", "values": [{"measurement": "in vitro phosphorylation (incorporation of 32P from gamma-32P-ATP into the E1 subunit; SDS-PAGE and autoradiography; 2, 5, 10, 15, 20 min)", "result": "time-dependent (incubation times of 2, 5, 10, 15, or 20 min) in vitro phosphorylation of the E1α/E1β complex substrate by the action of the plant PDHK (clone YA5) fusion protein"}]}]}
